A short description of the data set: yeast display, Sf9 membrane polyspecificity reagent, FACS + sequencing; frameworks hold sequencing errors. An outline of the steps:
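In a synthetic yeast display library (Saccharomyces cerevisiae BJ5465), nanobody expression was induced with galactose for 36–48 hours. FACS gates were set low and high (top ~1%) using anti-HA fluorescence for expression and streptavidin fluorescence for binding of the Sf9 membrane reagent. Each polyreactivity label is drawn from the gate of origin.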
In the case of “QVQLVESGGGLVQAGGSLRLSCAASGRIFRRYAMGWYRQAPGKERELVAVISRGGSTHYADSVKGRFTISRDNAKNTVYLQMNSLKPEDTAVYYCNAVVSVYTKDLDYWGQGTQVTVSS”, the “polyreactivity (PSR sort gate)” value is recorded as “high polyreactivity”. Next, “QVQLVESGGGLVQAGGSLRLSCAASGRIFRRYAMGWYRQAPGTETELVAAISSGASTYYADSVKGRFTISRDNAKNTVYLQMNSLKPEDTAVYYCAVDRPYYYGYRMDYWGQGTQVTVSS”: “low polyreactivity”. For the sequence “QVQLVESGGGLVQAGGSLRLSCAASGRIFRSNAMGWYRQAPGKERELVAAITWSGGSTYYADSVKGRFTISRDNAKNTVYLQMNSLKPEDTAVYYCAADGYTAYLPYYWFDYWGQGTQVTVSS”, the “polyreactivity (PSR sort gate)” value was “high polyreactivity”. For the sequence “QVQLVESGGGLVQAGGSLRLSCAASGRIFRSNSMGWYRQAPGKERELVATITRSGGSTYYADSGKGRFSISRDNAKNTVYVQKNSLKPEDTAVYYCNAVFGSAYRAQRIMGYWGQGTQVTVSS”, the “polyreactivity (PSR sort gate)” value is “low polyreactivity”. The entry for “QVQLVESGGGLVQAGGSLRLSCAASGRIFRTYAMGWYRQAPGKERELVAAINSVDRTYYADSVKGRFTISRDNAKNTVYLQMNSLKPEDTAVYYCAATIAPTPGYIIYDYWGQGTQVTVSS” is “high polyreactivity”; for “QVQLVESGGGLVQAGGSLRLSCAASGRIFRVYAMGWYRQAPGKERELVAAISGRGGSTTYADSVKGRFTISRDNAKNTVYLLMNSLKPEDTAVYYCAAGYRVDYWGQGTQVTVSS” it is “low polyreactivity”.

With “QVQLVESGGGLVQAGGSLRLSCAASGRIFRVYAMGWYRQAPGKERELVAAISSGGSTNYADSVKGRFTISRDNANNTVYLQMNSLKPEDTAVYYCAATVRGVGYRYYYWGQGTQVTVSS”, the “polyreactivity (PSR sort gate)” value is on record as “high polyreactivity”. The entry for “QVQLVESGGGLVQAGGSLRLSCAASGRIFRVYTMGWYRQAPGKERQLVATISYRGGSTYYADSVKGRFTISRDNAKNTVFLQMNSLTPDDNAVYNCAARLPADPGKTPGTLRTLDYWGQGTQVTVSS” is “high polyreactivity”; for “QVQLVESGGGLVQAGGSLRLSCAASGRIFRWNAMGWYRQAPGKERELVASITGGDITNYADSVKGRFTISRDNAKNTVYLQMNSLKPEDTAVYYCAARGYGRGRPVASYGYDYWGQGTQVTVSS” it is “low polyreactivity”; for “QVQLVESGGGLVQAGGSLRLSCAASGRIFRWYAMGWYRQAPGKERELVAAISRSGTSTYYADSVKGRFTISRDNAKNTVYLQMNSLKPEDTAVYYCAADAVIFGMDYWGQGTQVTVSS” it is “low polyreactivity”. The entry for “QVQLVESGGGLVQAGGSLRLSCAASGRIFRWYAMGWYRQAPGKERELVATISSTGGSTYYADSVKGRFTISRDNAKNTVYLQMNSLKPEDTAVYYCNALSFITITVYSEGDYWGQGTQVTVSS” is “low polyreactivity”. The entry for “QVQLVESGGGLVQAGGSLRLSCAASGRIFRYNAMGWYRQAPGKERELVAAISWTVGRTYYADSVKGRFTISRDNAKNTVYLQMNSLKPEDTAVYYCATYFRVWYRSYDYWGQGTQVTVSS” is “high polyreactivity”; for “QVQLVESGGGLVQAGGSLRLSCAASGRIFRYNAMGWYRQAPGKERELVAAITRSGGSTYYADSVKGRFTISRDNAKNTVYLQMNSLKPEDTAVYYCAKVQNGQWSTSRVPGDYQYNYWGQGTQVTVSS” it is “high polyreactivity”; for “QVQLVESGGGLVQAGGSLRLSCAASGRIFRYNAMGWYRQAPGKERELVAAITWRGGSTYYADSVKGRFTISRDNAKNTVYLQMNSLKPEDTAVYYCNKVYSLTFEYDYWGQGTQVTVSS” it is “high polyreactivity”.

With “QVQLVESGGGLVQAGGSLRLSCAASGRIFRYNAMVWNIQAPGKERELDAAISYRGTRTYYADSVKGRFTISRDNAKNTVYLQMNSLKPEDTAVYYCAKDSGYYTADDYDYWGQVTQVTVSS”, the “polyreactivity (PSR sort gate)” value is listed as “low polyreactivity”. Next, “QVQLVESGGGLVQAGGSLRLSCAASGRIFRYNTIGWYRQAPGKERELVADITSSDSSTNYADSVKGRFTISRDTAKNTVYLQMNSLKPEDTAVYYCNAVIYFKFDWGQGTQVTVSS”: “low polyreactivity”; “QVQLVESGGGLVQAGGSLRLSCAASGRIFRYNTMGWYRQAPGKERELVAAINSSGGRTYYADSVKGRFTISRDNAKNTVYLQMNSLKPEDTSVYYCAAVIYVLSGPGYDYWGQGTQVTVSS”: “high polyreactivity”.

Turning to “QVQLVESGGGLVQAGGSLRLSCAASGRIFRYNTMGWYRQAPGKERELVASITYRGGSTYYADSVKGRFTISRDNAKNTVYLQMNSLKPEDTAVYYCAASPARYWYGGKEYDYWGQGTQVTVSS”, the “polyreactivity (PSR sort gate)” value is “high polyreactivity”.

On to “QVQLVESGGGLVQAGGSLRLSCAASGRIFRYYAIGWYRQAPGKERELVAAISKSGGGTFYADSVKGRFTISRDNAKNTVYLQMNSLKPEDTAVYYCAARDKGLGKHDYWGQGTQVTVSS”, for which the “polyreactivity (PSR sort gate)” value is “low polyreactivity”. The entry for “QVQLVESGGGLVQAGGSLRLSCAASGRIFRYYAMGWYGQAPGKEREFVAAINSSGVNTYYADSVKGRFTISRDNAKNTVYLQMNSLKPEDTAVYYCAFLGMDYWGQGTQVTVSS” is “high polyreactivity”. The entry for “QVQLVESGGGLVQAGGSLRLSCAASGRIFRYYAMGWYRPAPGKERELVAGISSRGGSTYYADSVKGRFTISRDNAKNTVYLQMNSLKPEDTAVYYCAASPFHTVTPYGVVGRYDYWGQGTQVTVSS” is “high polyreactivity”; for “QVQLVESGGGLVQAGGSLRLSCAASGRIFRYYAMGWYRQAPGKDRELVAAIRSASSTYYADSVKGRFTISRDNAKNTVYVQMNSLKPEDTAVSYCAARLYGVYKRRYYYWGQGTQVTVSS” it is “high polyreactivity”. Next, “QVQLVESGGGLVQAGGSLRLSCAASGRIFRYYAMGWYRQAPGKERELVAAINTSTGSTYYADSVKGRFTISRDNAKNTVYLQMNSLKPEDTAVYYCATGWHYYRSLRGGLAWPGGYWGQGTQVTVSS”: “high polyreactivity”.

As to “QVQLVESGGGLVQAGGSLRLSCAASGRIFRYYAMGWYRQAPGKERELVAAIRYRSGGTYYADSVKGRFTISRDNAKNTVYLQMNCLKPEDTAVYYCNADKRLRGHGYDYWGQGTQVTVSS”, the “polyreactivity (PSR sort gate)” value was “high polyreactivity”. The entry for “QVQLVESGGGLVQAGGSLRLSCAASGRIFRYYAMGWYRQAPGKERELVAAISSGGSTNYADSVKGRFTISRDNAKNTVYIQMNSLKPEDTPVYYCAAEWYSYGARSSYGGSRNDYWGQGTQVTVSS” is “low polyreactivity”; for “QVQLVESGGGLVQAGGSLRLSCAASGRIFRYYAMGWYRQAPGKERELVAAISWSGSSTYYADSVKGRFTISRDNAKNTVFLQMNSLKPEDTAVYYCDALILSKSEYYWGQGTQVSVSS” it is “high polyreactivity”. As to “QVQLVESGGGLVQAGGSLRLSCAASGRIFRYYAMGWYRQAPGKERELVATITASSGSTYYADSVKGRFTISRDNAKNTVYLQMNSLKPEDTAVYYCAAGFVYRPGSFIRFDYWGQGTQVTVSS”, the “polyreactivity (PSR sort gate)” value is “high polyreactivity”. “QVQLVESGGGLVQAGGSLRLSCAASGRIFRYYAMGWYRQAPGKERELVATITSSGGSTFYADSVKGRFTISRDNAKNTVYLQMNSLKPEDTAVYYCAASRASRYFPYDYWGQGTQVTVSS”: the “polyreactivity (PSR sort gate)” value is given as “high polyreactivity”. Regarding “QVQLVESGGGLVQAGGSLRLSCAASGRIFRYYAMGWYRQATGKERELVASISSGGSTNYADSVKGRCTISRDNAKNTVYLQMNSLKPEDTAVYYCNAVLCFRAVYEYDYWGQGTQVTVSS”, the “polyreactivity (PSR sort gate)” value was “high polyreactivity”.

As for “QVQLVESGGGLVQAGGSLRLSCAASGRIFRYYARGWYRQAPGKEMELVAAISGSGGSTYYADSVKGRFTISRDNAQKTVYLQIHCLKPEDTAVYSCNARYRIPSGEGDHWGQGTQVTVSS”, the “polyreactivity (PSR sort gate)” value is reported as “low polyreactivity”.

(Values after the nanobody polyreactivity screen of Harvey et al. (2022).)
